Experimental data from patent US20170088600A1.
pKd: −log10 of the molar value. “And” between values parts separate entries of the source, which are not always exact repeats. Identical values can stand only once.

Key:
[1] = target: TRAIL-R2-Fc (human TRAIL-R2 aa 58-184, thrombin site, human IgG1 Fc), wild type (human) (UniProt O14763); assay: SPR kinetic fit, 1:1 Langmuir; TRAIL-R2-Fc captured, UL141 analyte
[2] = target: TRAIL-R1-Fc (human TRAIL-R1 ectodomain Fc fusion) (human) (UniProt O00220); assay: SPR kinetic fit, 1:1 Langmuir; TRAIL-R1-Fc captured, UL141 analyte
Chain of TRAIL-R1-Fc (human TRAIL-R1 ectodomain Fc fusion) (human) (O00220 24-239): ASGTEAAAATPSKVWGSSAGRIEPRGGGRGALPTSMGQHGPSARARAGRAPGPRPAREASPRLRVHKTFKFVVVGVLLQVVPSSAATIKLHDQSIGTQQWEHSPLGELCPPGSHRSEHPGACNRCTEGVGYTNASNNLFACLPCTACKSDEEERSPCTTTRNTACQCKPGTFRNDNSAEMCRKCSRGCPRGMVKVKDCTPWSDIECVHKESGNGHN

[3] = target: TRAIL-R1-Fc (human TRAIL-R1 ectodomain Fc fusion) (human) (UniProt O00220); assay: SPR, average of KDeq and kinetic KD (KDave)
[4] = target: CD155-Fc (CD155 / poliovirus receptor Fc fusion) (UniProt P15151); assay: SPR, KDave
Chain of CD155-Fc (CD155 / poliovirus receptor Fc fusion) (P15151 21-343): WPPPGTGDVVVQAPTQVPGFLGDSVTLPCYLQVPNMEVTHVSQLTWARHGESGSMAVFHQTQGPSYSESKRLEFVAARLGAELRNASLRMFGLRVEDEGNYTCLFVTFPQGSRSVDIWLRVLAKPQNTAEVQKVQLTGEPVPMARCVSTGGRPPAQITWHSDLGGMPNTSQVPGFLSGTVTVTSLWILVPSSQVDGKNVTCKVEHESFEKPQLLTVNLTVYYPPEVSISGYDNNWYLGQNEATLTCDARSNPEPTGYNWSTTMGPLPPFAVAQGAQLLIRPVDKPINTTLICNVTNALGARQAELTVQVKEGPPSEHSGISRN

[5] = target: TRAIL-R2-Fc (human TRAIL-R2 aa 58-184, thrombin site, human IgG1 Fc), wild type (human) (UniProt O14763); assay: SPR, KDave
[6] = target: CD155-Fc (CD155 / poliovirus receptor Fc fusion) (UniProt P15151); assay: SPR kinetic fit, 1:1 Langmuir; CD155-Fc captured, UL141 analyte
[7] = target: TRAIL-R2-Fc P150A (human) (UniProt O14763); assay: SPR, mutant TRAIL-R2-Fc captured, UL141 as analyte
Chain of TRAIL-R2-Fc P150A (human) (O14763 other isoform, or with tags, fused parts or gaps P150A P150A limits assumed): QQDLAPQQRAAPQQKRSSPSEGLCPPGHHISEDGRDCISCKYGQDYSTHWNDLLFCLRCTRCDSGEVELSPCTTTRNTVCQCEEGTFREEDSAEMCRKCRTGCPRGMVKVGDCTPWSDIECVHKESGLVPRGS

[8] = target: TRAIL-R2-Fc L110A/L114A (human) (UniProt O14763); assay: SPR, mutant TRAIL-R2-Fc captured, UL141 as analyte
Chain of TRAIL-R2-Fc L110A/L114A (human) (O14763 other isoform, or with tags, fused parts or gaps L110A L114A L110A L114A limits assumed): as the sequence (O14763 other isoform, or with tags, fused parts or gaps P150A P150A limits assumed) above, with L53A, L57A, A93P counted along it

[9] = target: TRAIL-R2-Fc K155A (human) (UniProt O14763); assay: SPR, mutant TRAIL-R2-Fc captured, UL141 as analyte
Chain of TRAIL-R2-Fc K155A (human) (O14763 other isoform, or with tags, fused parts or gaps K155A K155A limits assumed): as the sequence (O14763 other isoform, or with tags, fused parts or gaps P150A P150A limits assumed) above, with A93P, K98A counted along it

[10] = target: TRAIL-R2-Fc E78A/D109A (human) (UniProt O14763); assay: SPR, mutant TRAIL-R2-Fc captured, UL141 as analyte
Chain of TRAIL-R2-Fc E78A/D109A (human) (O14763 other isoform, or with tags, fused parts or gaps E78A D109A E78A D109A limits assumed): as the sequence (O14763 other isoform, or with tags, fused parts or gaps P150A P150A limits assumed) above, with E21A, D52A, A93P counted along it

[11] = target: TRAIL-R2-Fc M152A/R154A/K155A (human) (UniProt O14763); assay: SPR, mutant TRAIL-R2-Fc captured, UL141 as analyte
Chain of TRAIL-R2-Fc M152A/R154A/K155A (human) (O14763 other isoform, or with tags, fused parts or gaps M152A R154A K155A M152A R154A K155A limits assumed): as the sequence (O14763 other isoform, or with tags, fused parts or gaps P150A P150A limits assumed) above, with A93P, M95A, R97A, K98A counted along it

[12] = target: TRAIL-R2-Fc V167A (human) (UniProt O14763); assay: SPR, mutant TRAIL-R2-Fc captured, UL141 as analyte
Chain of TRAIL-R2-Fc V167A (human) (O14763 other isoform, or with tags, fused parts or gaps V167A V167A limits assumed): as the sequence (O14763 other isoform, or with tags, fused parts or gaps P150A P150A limits assumed) above, with A93P, V110A counted along it

[13] = target: TRAIL-R2-Fc D148A (human) (UniProt O14763); assay: SPR, mutant TRAIL-R2-Fc captured, UL141 as analyte
Chain of TRAIL-R2-Fc D148A (human) (O14763 other isoform, or with tags, fused parts or gaps D148A D148A limits assumed): as the sequence (O14763 other isoform, or with tags, fused parts or gaps P150A P150A limits assumed) above, with D91A, A93P counted along it

[14] = target: TRAIL-R2-Fc F112A (human) (UniProt O14763); assay: SPR, mutant TRAIL-R2-Fc captured, UL141 as analyte
Chain of TRAIL-R2-Fc F112A (human) (O14763 other isoform, or with tags, fused parts or gaps F112A F112A limits assumed): as the sequence (O14763 other isoform, or with tags, fused parts or gaps P150A P150A limits assumed) above, with F55A, A93P counted along it

[15] = target: TRAIL-R2-Fc M152A (human) (UniProt O14763); assay: SPR, mutant TRAIL-R2-Fc captured, UL141 as analyte
Chain of TRAIL-R2-Fc M152A (human) (O14763 other isoform, or with tags, fused parts or gaps M152A M152A limits assumed): as the sequence (O14763 other isoform, or with tags, fused parts or gaps P150A P150A limits assumed) above, with A93P, M95A counted along it

[16] = target: TRAIL-R2-Fc R154A (human) (UniProt O14763); assay: SPR, mutant TRAIL-R2-Fc captured, UL141 as analyte
Chain of TRAIL-R2-Fc R154A (human) (O14763 other isoform, or with tags, fused parts or gaps R154A R154A limits assumed): as the sequence (O14763 other isoform, or with tags, fused parts or gaps P150A P150A limits assumed) above, with A93P, R97A counted along it

[17] = target: TRAIL-R1-Fc (human TRAIL-R1 ectodomain Fc fusion) (human) (UniProt O00220); assay: SPR, steady-state analysis (KDeq); TRAIL-R1-Fc captured, UL141 analyte
[18] = target: TRAIL-R2-Fc (human TRAIL-R2 aa 58-184, thrombin site, human IgG1 Fc), wild type (human) (UniProt O14763); assay: SPR, WT TRAIL-R2-Fc captured, UL141 as analyte

Chain of TRAIL-R2-Fc (human TRAIL-R2 aa 58-184, thrombin site, human IgG1 Fc), wild type (human) (O14763 other isoform, or with tags, fused parts or gaps limits assumed): as the sequence (O14763 other isoform, or with tags, fused parts or gaps P150A P150A limits assumed) above, with A93P counted along it
Chain of UL141 ectodomain of human cytomegalovirus (HCMV FIX strain), C-terminal poly-histidine tag (ligand) (Q6RJQ3 30-279, tags left off): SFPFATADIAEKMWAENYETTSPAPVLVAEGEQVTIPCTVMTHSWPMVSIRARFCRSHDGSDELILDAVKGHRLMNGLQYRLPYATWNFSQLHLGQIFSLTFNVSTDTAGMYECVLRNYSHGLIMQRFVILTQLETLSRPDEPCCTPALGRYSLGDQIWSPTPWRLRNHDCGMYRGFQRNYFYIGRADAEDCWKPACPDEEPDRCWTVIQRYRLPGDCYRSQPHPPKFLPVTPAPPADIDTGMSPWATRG

## UL141 ectodomain of human cytomegalovirus (HCMV FIX strain), C-terminal poly-histidine tag (ligand)
[1]
  pKd: 8.22
  koff: 7.21e-05 s⁻¹
  kon: 12100 M⁻¹ s⁻¹
[2]
  pKd: 5.63
  koff: 0.014 s⁻¹
  kon: 6020 M⁻¹ s⁻¹
[3]
  pKd: 5.64
[4]
  pKd: 8.70
[5]
  pKd: 8.22
[6]
  pKd: 8.71
  koff: 0.000346 s⁻¹
  kon: 176000 M⁻¹ s⁻¹
[7]
  pKd: 8.08
  koff: 0.000391 s⁻¹
  kon: 47000 M⁻¹ s⁻¹
[8]
  pKd: 7.37
  fold decrease in binding affinity versus wild type: 7 fold
  fold lower binding than wild type: 10 fold
  koff: 0.00064 s⁻¹
  kon: 15000 M⁻¹ s⁻¹
[9]
  pKd: 8.11
  koff: 0.00038 s⁻¹
  kon: 49100 M⁻¹ s⁻¹
[10]
  pKd: 7.22
  fold lower binding than wild type: 10 fold
  koff: 0.00151 s⁻¹
  kon: 25000 M⁻¹ s⁻¹
[11]
  pKd: 8.13
  koff: 0.00027 s⁻¹
  kon: 36500 M⁻¹ s⁻¹
[12]
  pKd: 7.81
  fold lower binding than wild type: 2.5 fold
  koff: 0.00048 s⁻¹
  kon: 31000 M⁻¹ s⁻¹
[13]
  pKd: 7.26
  fold lower binding than wild type: 10 fold
  koff: 0.0013 s⁻¹
  kon: 23500 M⁻¹ s⁻¹
[14]
  pKd: 6.20
  fold lower binding than wild type: 100 fold
  koff: 0.00566 s⁻¹
  kon: 8980 M⁻¹ s⁻¹
[15]
  pKd: 8.13
  koff: 0.000382 s⁻¹
  kon: 51000 M⁻¹ s⁻¹
[16]
  pKd: 8.20
  koff: 0.000243 s⁻¹
  kon: 38800 M⁻¹ s⁻¹
[17]
  pKd: 8.64
[18]
  pKd: 8.22 and 8.23
  koff: 7.21e-05 s⁻¹
  kon: 12100 M⁻¹ s⁻¹
